Data on 8 molecules can be found in patent US20200002421A1 (AbbVie / Abbott, published 2020).

B1: huAb3v2.5-CZ (antibody, human IgG1, kappa, L234A L235A, V domains shown)
VH: EVQLVQSGAEVKKPGSSVKVSCKASGYTFSSYWMHWVRQAPGQGLEWIGLIHPESGSTNYNEMFKNRATLTVDRSTSTAYMELSSLRSEDTAVYYCAGGGRLYFDYWGQGTTVTVSS
VL: DIVMTQSPLSLPVTPGEPASISCRSSQSLVHSNRDTYLRWYLQKPGQSPQLLIYKVSNRFSGVPDRFSGSGSGTDFTLKISRVEAEDVGVYYCSQSTHVPYTFGGGTKVEIKR
modifications: synthon CZ on interchain Cys
B2: huAb3v2.5-TX (antibody, human IgG1, kappa, L234A L235A, V domains shown)
VH: EVQLVQSGAEVKKPGSSVKVSCKASGYTFSSYWMHWVRQAPGQGLEWIGLIHPESGSTNYNEMFKNRATLTVDRSTSTAYMELSSLRSEDTAVYYCAGGGRLYFDYWGQGTTVTVSS
VL: DIVMTQSPLSLPVTPGEPASISCRSSQSLVHSNRDTYLRWYLQKPGQSPQLLIYKVSNRFSGVPDRFSGSGSGTDFTLKISRVEAEDVGVYYCSQSTHVPYTFGGGTKVEIKR
modifications: synthon TX on interchain Cys
B3: huAb13v1-CZ (antibody, human IgG1, kappa, L234A L235A, V domains shown)
VH: EVQLQESGPGLVKPSETLSLTCAVTGYSITSGYSWHWIRQFPGNGLEWMGYIHSSGSTNYNPSLKSRISISRDTSKNQFFLKLSSVTAADTAVYYCAGYDDYFEYWGQGTTVTVSS
VL: DIQMTQSPSSLSASVGDRVTITCKASQNVGFNVAWYQQKPGKSPKALIYSASYRYSGVPSRFSGSGSGTDFTLTISSLQPEDFAEYFCQQYNWYPFTFGQGTKLEIKR
modifications: synthon CZ on interchain Cys
B4: huAb13v1-SR (antibody, human IgG1, kappa, L234A L235A, V domains shown)
VH: EVQLQESGPGLVKPSETLSLTCAVTGYSITSGYSWHWIRQFPGNGLEWMGYIHSSGSTNYNPSLKSRISISRDTSKNQFFLKLSSVTAADTAVYYCAGYDDYFEYWGQGTTVTVSS
VL: DIQMTQSPSSLSASVGDRVTITCKASQNVGFNVAWYQQKPGKSPKALIYSASYRYSGVPSRFSGSGSGTDFTLTISSLQPEDFAEYFCQQYNWYPFTFGQGTKLEIKR
modifications: synthon SR on interchain Cys
B5: huAb13v1-XW (antibody, human IgG1, kappa, L234A L235A, V domains shown)
VH: EVQLQESGPGLVKPSETLSLTCAVTGYSITSGYSWHWIRQFPGNGLEWMGYIHSSGSTNYNPSLKSRISISRDTSKNQFFLKLSSVTAADTAVYYCAGYDDYFEYWGQGTTVTVSS
VL: DIQMTQSPSSLSASVGDRVTITCKASQNVGFNVAWYQQKPGKSPKALIYSASYRYSGVPSRFSGSGSGTDFTLTISSLQPEDFAEYFCQQYNWYPFTFGQGTKLEIKR
modifications: synthon XW on interchain Cys
B6: huAb13v1-YG (antibody, human IgG1, kappa, L234A L235A, V domains shown)
VH: EVQLQESGPGLVKPSETLSLTCAVTGYSITSGYSWHWIRQFPGNGLEWMGYIHSSGSTNYNPSLKSRISISRDTSKNQFFLKLSSVTAADTAVYYCAGYDDYFEYWGQGTTVTVSS
VL: DIQMTQSPSSLSASVGDRVTITCKASQNVGFNVAWYQQKPGKSPKALIYSASYRYSGVPSRFSGSGSGTDFTLTISSLQPEDFAEYFCQQYNWYPFTFGQGTKLEIKR
modifications: synthon YG on interchain Cys
B7: huAb13v1-KZ (antibody, human IgG1, kappa, L234A L235A, V domains shown)
VH: EVQLQESGPGLVKPSETLSLTCAVTGYSITSGYSWHWIRQFPGNGLEWMGYIHSSGSTNYNPSLKSRISISRDTSKNQFFLKLSSVTAADTAVYYCAGYDDYFEYWGQGTTVTVSS
VL: DIQMTQSPSSLSASVGDRVTITCKASQNVGFNVAWYQQKPGKSPKALIYSASYRYSGVPSRFSGSGSGTDFTLTISSLQPEDFAEYFCQQYNWYPFTFGQGTKLEIKR
modifications: synthon KZ on interchain Cys
B8: huAb13v1-SE (antibody, human IgG1, kappa, L234A L235A, V domains shown)
VH: EVQLQESGPGLVKPSETLSLTCAVTGYSITSGYSWHWIRQFPGNGLEWMGYIHSSGSTNYNPSLKSRISISRDTSKNQFFLKLSSVTAADTAVYYCAGYDDYFEYWGQGTTVTVSS
VL: DIQMTQSPSSLSASVGDRVTITCKASQNVGFNVAWYQQKPGKSPKALIYSASYRYSGVPSRFSGSGSGTDFTLTISSLQPEDFAEYFCQQYNWYPFTFGQGTKLEIKR
modifications: synthon SE on interchain Cys

For this assay, the target named is T1, Human full length B7-H3 (human, UniProt Q5ZPR3 29-534).
T1 sequence: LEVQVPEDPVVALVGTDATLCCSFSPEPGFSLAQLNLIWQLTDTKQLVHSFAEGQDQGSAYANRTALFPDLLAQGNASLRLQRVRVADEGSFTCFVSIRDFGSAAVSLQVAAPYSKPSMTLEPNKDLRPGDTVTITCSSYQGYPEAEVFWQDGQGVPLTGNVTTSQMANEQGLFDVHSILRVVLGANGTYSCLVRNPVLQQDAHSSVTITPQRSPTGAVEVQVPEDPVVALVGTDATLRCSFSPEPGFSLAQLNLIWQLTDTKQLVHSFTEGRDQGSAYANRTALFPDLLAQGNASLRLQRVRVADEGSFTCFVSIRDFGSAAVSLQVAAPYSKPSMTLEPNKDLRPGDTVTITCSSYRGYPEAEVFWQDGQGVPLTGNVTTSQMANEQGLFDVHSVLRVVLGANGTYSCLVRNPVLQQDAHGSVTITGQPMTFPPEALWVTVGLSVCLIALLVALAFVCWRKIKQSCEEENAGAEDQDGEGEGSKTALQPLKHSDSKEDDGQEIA
The assay can be described thus: cell-based or functional assay.
For B1, the “EC50 nM H1650 (in vitro tumor cell cytotoxicity)” value (from here on “EC50 nM H1650”) was found to be 0.4 nM. B2: the “EC50 nM H1650” value is 0.62 nM. The value for B3 was 0.18 nM; that for B4 was 0.59 nM. Turning to B5, the “EC50 nM H1650” value is 0.86 nM. To B6 belongs 0.33 nM. In the case of B7, the “EC50 nM H1650” value worked out at 179 nM.

In the case of B8, the “EC50 nM H1650” value was found to be 0.63 nM.
